In US20250196025A1:

Assays:
[1] = target: dAb (VL single domain antibody); experiment: column dynamic binding capacity at 10% breakthrough, dAb, 4 min residence time, duplicate columns
[2] = target: dAb (VL single domain antibody); experiment: column dynamic binding capacity at 10% breakthrough, dAb, 6 min residence time, duplicate columns
[3] = target: dAb (VL single domain antibody); experiment: column dynamic binding capacity at 10% breakthrough, dAb, 10 min residence time, duplicate columns
[4] = target: dAb (VL single domain antibody); experiment: column dynamic binding capacity at 10% breakthrough, dAb, 2.4 min residence time, duplicate columns
[5] = target: Fab-fragment produced from Trastuzumab by papain cleavage; experiment: column dynamic binding capacity at 10% breakthrough, Fab-fragment, 1 min residence time, duplicate columns
[6] = target: Herceptin (Trastuzumab); experiment: column dynamic binding capacity at 10% breakthrough, Trastuzumab, 4 min residence time, at CIP cycle 35 (0.1 M NaOH)
[7] = target: Adalimumab; experiment: column dynamic binding capacity at 10% breakthrough, 4 min residence time; ligand density about 14.3 mg/ml
[8] = target: Adalimumab; experiment: column dynamic binding capacity at 10% breakthrough, 6 min residence time; ligand density about 14.3 mg/ml
[9] = target: Fab-fragment produced from Trastuzumab by papain cleavage; experiment: column dynamic binding capacity at 10% breakthrough, Fab-fragment, 6 min residence time; ligand density 10.6
[10] = target: Fab-fragment produced from Trastuzumab by papain cleavage; experiment: column dynamic binding capacity at 10% breakthrough, Fab-fragment, 6 min residence time; ligand density 11.0
[11] = target: IgG (Gammanorm); experiment: SPR (Biacore), variant amine-coupled to CM5 chip, Gammanorm as analyte, 1:1 kinetic fit
[12] = target: IgG (Gammanorm); experiment: SPR (Biacore), variant amine-coupled to CM5 chip, Gammanorm as analyte, steady state affinity fit
[13] = target: Fab-fragment produced from Trastuzumab by papain cleavage; experiment: column dynamic binding capacity at 10% breakthrough, Fab-fragment, 6 min residence time, duplicate columns
[14] = target: Fab-fragment produced from Trastuzumab by papain cleavage; experiment: column dynamic binding capacity at 10% breakthrough, Fab-fragment, 10 min residence time, duplicate columns

Chain of Pentamer of SEQ ID NO:3 (ligand B2-1, pAM237) immobilized on cross-linked agarose beads (prototype separation matrix) (chain): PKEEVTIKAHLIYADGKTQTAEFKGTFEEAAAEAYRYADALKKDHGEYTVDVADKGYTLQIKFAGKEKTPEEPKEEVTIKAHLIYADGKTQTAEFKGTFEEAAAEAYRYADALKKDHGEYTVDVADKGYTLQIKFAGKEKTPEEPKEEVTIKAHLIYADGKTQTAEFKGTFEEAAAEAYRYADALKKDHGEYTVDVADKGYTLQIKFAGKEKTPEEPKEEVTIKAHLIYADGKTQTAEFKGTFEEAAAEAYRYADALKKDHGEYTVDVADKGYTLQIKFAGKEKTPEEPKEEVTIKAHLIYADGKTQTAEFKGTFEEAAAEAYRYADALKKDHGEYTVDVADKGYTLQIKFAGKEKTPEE

Substance | Kd [11] [nM] | Kd [12] [nM] | other results
Capto™ L (Cytiva™), commercial Protein L matrix | – | – | DBC Qb10% [1]: 16.2; DBC Qb10% [2]: 16.4; DBC Qb10% [3]: 16.7; DBC Qb10% [4]: 15.8; DBC Qb10% [5]: 16.9; DBC Qb10% [6]: 21
Pentamer of SEQ ID NO:3 (ligand B2-1, pAM237) immobilized on cross-linked agarose beads (prototype separation matrix) | – | – | DBC Qb10% [7]: 57 mg/mL; DBC Qb10% [8]: 67 mg/mL; DBC Qb10% [5]: 48.1; DBC Qb10% 6 min RT [9]: 56.8; DBC Qb10% 6 min RT [10]: 55.5
Protein L construct pAM114 (wt B3 domain; N10, N45, N60) | 11 | 46 | –
Protein L variant pAM236 (domain B1b-1; H10, H45, Q60) | 61 | 130 | –
Protein L variant pAM240 (domain B5b-1; H10, H45, Q60) | 15 | 79 | –
Protein L variant pAM241 (domain C1-1; H10, H45, Q60) | 87 | 187 | –
Protein L variant pAM242 (domain C1b-1; H10, H45, Q60) | 49 | 116 | –
Protein L variant pAM250 (domain B1b-2; H10, H45, Y60) | 40 | 99 | –
Protein L variant pAM254 (domain B5b-2; H10, H45, Y60) | 7 | 41 | –
Protein L variant pAM255 (domain C1-2; H10, H45, Y60) | 146 | 324 | –
Protein L variant pAM256 (domain C1b-2; H10, H45, Y60) | 59 | 134 | –
TOYOPEARL® AF-r Protein L-650F (Tosoh) | – | – | DBC Qb10% [1]: 25.2; DBC Qb10% [2]: 26.3; DBC Qb10% [3]: 26; DBC Qb10% [4]: 23.7; DBC Qb10% [5]: 43.7; DBC Qb10% [13]: 57.7; DBC Qb10% [14]: 58.1
